The values that follow come from patent US20220153859A1 (ANOKION, published 2022).

Where a chain is given by its changes, count along the chain named.

To fix the notation:
T1: Human glycophorin A on human erythrocytes (human, UniProt P02724 20-150)
T1 construct: whole, on cells; Target of the flow cytometry assays on human erythrocytes; also called human GPA; hGPA
T1 sequence (looked up): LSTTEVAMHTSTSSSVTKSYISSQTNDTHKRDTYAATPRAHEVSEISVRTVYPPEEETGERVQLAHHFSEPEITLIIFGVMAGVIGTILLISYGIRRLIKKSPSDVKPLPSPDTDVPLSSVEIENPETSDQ

T2: Human glycophorin A extract (hGPA extract) (human, UniProt P02724 20-150)
T2 construct: also called human GPA extracted from red blood cells (extract)
T2 sequence (looked up): T1 sequence (looked up)

B1: Humanized 10F7-M10 Fab (non-affinity matured) (Fab)
heavy: EVQLLESGGGLVQPGKSLRLSCKASGYTFNSYFMHWVRQAPGKGLEWVGMIRPNGGTTDYNEKFKNRFTLSVDKSKNTAYLQMNSLRAEDTAVYYCARWEGSYYALDYWGQGTASTKGPSVFPLAPSSKSTSGGTAALGCLVKDYFPEPVTVSWNSGALTSGVHTFPAVLQSSGLYSLSSVVTVPSSSLGTQTYICNVNHKPSNTKVDKKVEPKSC
light: EITLTQSPATLSLSPGERATLSCRASSNVKYMYWYQQKPGQAPRLWIYYTSNLASGIPDRFSGSGSGTDYTLTISRLEPEDFAVYYCQQFTSSPYTFGQGTKVEVKRTVAAPSVFIFPPSDEQLKSGTASVVCLLNNFYPREAKVQWKVDNALQSGNSQESVTEQDSKDSTYSLSSTLTLSKADYEKHKVYACEVTHQGLSSPVTKSFNRGEC
notes: Soluble Fab expressed in HEK cells; also called clone m10; wild-type 10F7-M10
B2: Humanized & affinity matured 10F7-M10 Fab clone L1+2-1 (Fab)
heavy: B1 heavy
light: B1 light with K30F, Y31F, Y48H, Y49H
notes: Soluble Fab from HEK cells; all domains other than VL are the same as wild-type 10F7-M10; also called FF-HH-N
B3: Humanized & affinity matured 10F7-M10 Fab clone L1+2-24 (Fab)
heavy: B1 heavy
light: B1 light with K30Q, Y31Q, Y48H, Y49H, N52I
notes: Soluble Fab from HEK cells; all domains other than VL are the same as wild-type 10F7-M10; also called QQ-HH-I
B4: Humanized & affinity matured 10F7-M10 Fab clone L1+2-14 (Fab)
heavy: B1 heavy
light: B1 light with K30H, Y31Q, Y48H, Y49H, N52K
notes: Soluble Fab from HEK cells; all domains other than VL are the same as wild-type 10F7-M10; also called HQ-HH-K
B5: Humanized & affinity matured 10F7-M10 Fab clone L1+2-28 (Fab)
heavy: B1 heavy
light: B1 light with K30Y, Y31W, Y48H, Y49H, N52D
notes: Soluble Fab from HEK cells; all domains other than VL are the same as wild-type 10F7-M10; also called YW-HH-D
B6: Humanized & affinity matured 10F7-M10 Fab clone L1+2-15 (Fab)
heavy: B1 heavy
light: B1 light with K30F, Y48H, Y49H, N52W
notes: Soluble Fab from HEK cells; all domains other than VL are the same as wild-type 10F7-M10; also called FY-HH-W
B7: Humanized & affinity matured 10F7-M10 Fab clone L1+2-39 (Fab)
heavy: B1 heavy
light: B1 light with K30F, Y31F, Y48H, Y49H, N52V
notes: Soluble Fab from HEK cells; all domains other than VL are the same as wild-type 10F7-M10; also called FF-HH-V
B8: Humanized & affinity matured 10F7-M10 Fab clone L1+2-35 (Fab)
heavy: B1 heavy
light: B1 light with K30Y, Y31W, Y48H, Y49H, N52E
notes: Soluble Fab from HEK cells; all domains other than VL are the same as wild-type 10F7-M10; also called YW-HH-E
B9: Humanized & affinity matured 10F7-M10 Fab clone L1+2-8 (Fab)
heavy: B1 heavy
light: B1 light with K30I, Y31D, Y48H, Y49H, N52Y
notes: Soluble Fab from HEK cells; all domains other than VL are the same as wild-type 10F7-M10; also called ID-HH-Y
B10: Humanized & affinity matured 10F7-M10 Fab clone L1+2-17 (Fab)
heavy: B1 heavy
light: B1 light with K30Y, Y31F, Y48H, Y49H, N52D
notes: Soluble Fab from HEK cells; all domains other than VL are the same as wild-type 10F7-M10; also called YF-HH-D
B11: Humanized & affinity matured 10F7-M10 Fab clone L1+2-21 (Fab)
heavy: B1 heavy
light: B1 light with K30Y, Y31F, Y48H, Y49H, N52V
notes: Soluble Fab from HEK cells; all domains other than VL are the same as wild-type 10F7-M10; also called YF-HH-V
B12: Humanized & affinity matured 10F7-M10 Fab clone L1+2-25 (Fab)
heavy: B1 heavy
light: B1 light with K30A, Y31W, Y49H, N52K
notes: also called L1 + 2-8-25; AW-YH-K
B13: Humanized & affinity matured 10F7-M10 Fab clone L1+2-10 (Fab)
heavy: B1 heavy
light: B1 light with K30W, Y31F, Y48H, Y49H, N52E
notes: Soluble Fab from HEK cells; all domains other than VL are the same as wild-type 10F7-M10; also called WF-HH-E
B14: CDRL2_18 (Fab, V domains shown)
VH: QVQLVQSGAEVKKPGASVKVSCTASGFNIKDTYMLWVRQAPGQGLEWMGRIDPANANSRYDPKFQGRVTITADTSTNTAYMELSSLRSEDTAVYYCVDGYMFAYWGQGTLVTVSS
VL: DVVMTQTPLSLSVTPGQPASISCKSSQSLLYSNGKTYLHWLLQKPGQSPQRLIYLLNRLHSGVPDRFSGSGSGTDFTLKISRVEAEDVGVYYCVQGTHFPLTFGQGTKLEIKR
notes: copies: 1 + 1
B15: CDRL2_33 (Fab, V domains shown)
VH: B14 VH
VL: B14 VL with L56N, N57S
notes: copies: 1 + 1
B16: CDRH1_24 (Fab, V domains shown)
VH: B14 VH with D31T, T32V, M34I
VL: B14 VL with L56V, N57S, R58K, H60D
notes: copies: 1 + 1
B17: CDRH1_25 (Fab, V domains shown)
VH: B14 VH with D31H, T32V, M34I
VL: B14 VL with L56V, N57S, R58K, H60D
notes: copies: 1 + 1
B18: CDRL2_32 (Fab, V domains shown)
VH: B14 VH
VL: B14 VL with H60S
notes: copies: 1 + 1
B19: CDRH1_1 (Fab, V domains shown)
VH: B14 VH with K30R, D31A, M34I
VL: B14 VL with L56V, N57S, R58K, H60D
notes: copies: 1 + 1
B20: CDRH1_14 (Fab, V domains shown)
VH: B14 VH with K30R, D31N, T32I, M34L
VL: B14 VL with L56V, N57S, R58K, H60D
notes: column Notes: 'Duplicate ELISA hit'; copies: 1 + 1
B21: CDRL2_49 (Fab, V domains shown)
VH: B14 VH
VL: B14 VL with L59M, H60S
notes: column Notes: 'ELISA Hit'; copies: 1 + 1
B22: CDRL2_37 (Fab, V domains shown)
VH: B14 VH
VL: B14 VL with L56S
notes: copies: 1 + 1
B23: CDRH1_15 (Fab, V domains shown)
VH: B14 VH with K30R, D31K, M34I
VL: B14 VL with L56V, N57S, R58K, H60D
notes: copies: 1 + 1

The target of the first assay is T1, Human glycophorin A on human …. Briefly: flow cytometry (FACS) on human erythrocytes, soluble Fab.
With B1, the response was half-maximal at 73 nM (EC50).
B2 came in with an EC50 of 3.3 nM.
On the same count and under the same terms, then B3, with 23 nM; and B4, with 6.4 nM; and B5, with 3.7 nM.
With B6, the EC50 turned out to be 3.4 nM.
As to B7, the midpoint of the response, the EC50, lay at 2.7 nM.
On to B8, for which the EC50 stood at 4.6 nM.
B9 displayed an EC50 of 14 nM.
Same read-out and setting: for B10 the value was 3.4 nM; for B11, 3.7 nM; for B12, 100 nM.
The molecule B13 yielded a concentration giving a half-maximal response (EC50) of 3.3 nM.

Another assay concerns the target T2, Human glycophorin A extract (hGPA …). Briefly: Octet BLI, hGPA extract, apparent KD.
Turning to B1, the Kd turned out to be 140 nM.
Turning to B2, the Kd was 5.9 nM.
With B3, the Kd came out at 21 nM.
Same read-out and setting: then B4, with 33 nM; and B5, with 3.5 nM; and B6, with 7 nM.
The same measure, in the same setting: then B7, with 4.8 nM; and B8, with 17 nM.
The same measure, in the same setting: then B9, with 11 nM; and B10, with 6 nM.
On to B11, for which the Kd came to 5.1 nM.
On to B13, for which the Kd stood at 6.4 nM.

For the next assay the target is unchanged. As to the kind of experiment: Octet BLI, hGPA extract, apparent.
On to B1, for which the koff was found to be 0.0067 s⁻¹ and the kon came to 47000 M⁻¹ s⁻¹.
For B2 the same measures were 0.0018 s⁻¹ and 310000 M⁻¹ s⁻¹.
With B3, the off-rate (koff) was 0.008 s⁻¹ and the kon was determined as 380000 M⁻¹ s⁻¹.
On the same counts, the results for B4 are 0.00057 s⁻¹ and 17000 M⁻¹ s⁻¹.
Take B5: the koff is 0.0021 s⁻¹ and the kon amounted to 610000 M⁻¹ s⁻¹.
Turning to B6, the koff is 0.0016 s⁻¹ and the kon worked out at 220000 M⁻¹ s⁻¹.
For B7 the same measures were 0.0012 s⁻¹ and 250000 M⁻¹ s⁻¹.
On the same counts, the results for B8 are 0.0014 s⁻¹ and 81000 M⁻¹ s⁻¹.
On the same counts, the results for B9 are 0.0022 s⁻¹ and 200000 M⁻¹ s⁻¹.
As to B10, the koff came out at 0.00093 s⁻¹ and the kon stood at 160000 M⁻¹ s⁻¹.
With B11, the koff is 0.0013 s⁻¹ and the kon stood at 260000 M⁻¹ s⁻¹.
With B13, the off-rate (koff) turned out to be 0.0014 s⁻¹ and the kon was found to be 220000 M⁻¹ s⁻¹.

A further assay shares this target. Briefly: Biacore SPR, hGPA extract, apparent KD.
In the case of B1, the Kd turned out to be 141 nM.
As for B2, the Kd came to 5.95 nM.
On the same count and under the same terms, then B3, with 21 nM; and B4, with 32.8 nM; and B5, with 3.49 nM.
On the same count and under the same terms, for B6 the value was 7 nM.
Regarding B7, the Kd turned out to be 4.82 nM.
For B8, the Kd was 16.7 nM.
In the case of B9, the Kd came to 11 nM.
In the case of B10, the Kd was 5.97 nM.
On the same count and under the same terms, for B11 the value was 5.12 nM; for B13, 6.43 nM.

Another assay has the same target. As to the kind of experiment: Biacore SPR, hGPA extract, apparent.
Take B1: the koff came out at 0.00667 s⁻¹ and the kon turned out to be 47300 M⁻¹ s⁻¹.
On to B2, for which the koff was found to be 0.00185 s⁻¹ and the on-rate (kon) was 311000 M⁻¹ s⁻¹.
For B3 the same measures were 0.00802 s⁻¹ and 382000 M⁻¹ s⁻¹.
For B4 the same measures were 0.000568 s⁻¹ and 17300 M⁻¹ s⁻¹.
For B5, the koff is 0.00214 s⁻¹ and the kon is 614000 M⁻¹ s⁻¹.
Take B6: the koff stood at 0.00155 s⁻¹ and the association rate constant (kon) was 222000 M⁻¹ s⁻¹.
On to B7, for which the koff was determined as 0.00121 s⁻¹ and the kon was determined as 250000 M⁻¹ s⁻¹.
On the same counts, the results for B8 are 0.00136 s⁻¹ and 81300 M⁻¹ s⁻¹.
Take B9: the dissociation rate constant (koff) turned out to be 0.00218 s⁻¹ and the kon is 198000 M⁻¹ s⁻¹.
On the same counts, the results for B10 are 0.000931 s⁻¹ and 156000 M⁻¹ s⁻¹.
For B11 the same measures were 0.00132 s⁻¹ and 257000 M⁻¹ s⁻¹.
On the same counts, the results for B13 are 0.00143 s⁻¹ and 222000 M⁻¹ s⁻¹.

The next assay addresses T3, Cynomolgus glycophorin A on cynomolgus erythrocytes (cynomolgus monkey).
T3 construct: whole, on cells; also called cyno GPA; cyno erythrocytes
As to the kind of experiment: FACS (flow cytometry) on cynomolgus erythrocytes (cRBCs). In short, it runs like this:
(§1)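 Flow cytometry was used to measure Fab binding to human or cynomolgus erythrocytes, and this binding is reported as EC50. The Fabs had been picked through next-generation-sequencing enrichment and phage ELISA screens, then expressed in soluble form in HEK cells, with the top-ranking ones purified on CH1 resin.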
Take B14: the response was half-maximal at 8.3 nM (EC50).
Molecule B15 showed an EC50 of 8.3 nM.
On to B16, for which the EC50 was found to be 10.6 nM.
In turn, B17 displayed an EC50 of 10.2 nM.
On the same count and under the same terms, then B18, with 11.1 nM; and B19, with 11.6 nM.
On the same count and under the same terms, then B20, with 10.8 nM.
On the same count and under the same terms, then B21, with 13 nM; and B22, with 10.1 nM; and B23, with 10.6 nM.

The target of a further assay is T1, Human glycophorin A on human …. Briefly: FACS (flow cytometry) on human erythrocytes (hRBCs). Summed up: as §1
For B14, the midpoint of the response, the EC50, lay at 2.5 nM.
B15 yielded an EC50 of 4.4 nM.
Same read-out and setting: then B16, with 3.1 nM; and B17, with 3.1 nM; and B18, with 4.2 nM.
On the same count and under the same terms, then B19, with 4.3 nM; and B20, with 4.2 nM.
Same read-out and setting: for B21 the value was 4.4 nM.
Molecule B22 came in with an EC50 of 2.8 nM.
Same read-out and setting: then B23, with 3.1 nM.
